Measured values published in the supplement of paper PMC12855868.

B1: library; numbered along this chain (parent)
chain: MAAAGGARLLRAASAVLGGPAGRWLHHAGSRAGSSGLLRNRGPGGSAEASRSLSVSARARSSSEDKITVHFINRDGETLTTKGKVGDSLLDVVVENNLDIDGFGACEGTLACSTCHLIFEDHIYEKLDAITDEENDMLDLAYGLTDRSRLGCQICLTKSMDNMTVRVPETVADARQSIDVGKTS

Variants of: B1
Test: scaled log2 fold change in cell abundance, elesclomol vs control (0 = silent mean, 1 = nonsense mean) (scaled log2 ratio); higher = higher viability under elesclomol (loss of FDX1 cuproptosis function)
Conditions: glucose 10 mM
Protocol: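 Deep mutational scan of full-length human FDX1: a pooled saturation-mutagenesis ORF library (every residue 2-184 mutated to all 19 amino acids plus stop, and silent codons where available) was expressed by lentivirus in FDX1-knockout ABC1 (14 days) or HEK293T (11 days) cells grown with elesclomol (ES) or DMSO control. Variant abundance came from ORF sequencing. The log2 fold change (ES vs control, mean of duplicates) was centred on the silent-variant mean (0) and scaled to the nonsense-variant mean (1). Higher values mean greater viability under ES, i.e. loss of FDX1 function in cuproptosis.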

[1] = with ABC1 FDX1 KO, elesclomol 5 nM, 14 days
[2] = with HEK293T FDX1 KO, elesclomol 40 nM, 11 days
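Further: variant abundance is its share of total variant reads in each endpoint sample, from next-generation sequencing of the integrated ORF PCR-amplified out of genomic DNA.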

MAAAGGARLLRAASAVLGGPAGRWLHHAGSRAGSSGLLRNRGPGGSAEASRSLSVSARARSSSEDKITVHFINRDGETLTTKNKVGDSLLDVVVENNLDIDGFGACEGTLACSTCHLIFEDHIYEKLDAITDEENDMLDLAYGLTDRSRLGCQICLTKSMDNMTVRVPETVADARQSIDVGKTS [G83N]
scaled log2 fold change [1]: 0.304
scaled log2 fold change [2]: -0.106

MAAAGGARLLRAASAVLGGPAGRWLHHAGSRAGSSGLLRNRGPGGSAEASRSLSVSARARSSSEDKITVHFINRDGETLTTKPKVGDSLLDVVVENNLDIDGFGACEGTLACSTCHLIFEDHIYEKLDAITDEENDMLDLAYGLTDRSRLGCQICLTKSMDNMTVRVPETVADARQSIDVGKTS [G83P]
scaled log2 fold change [1]: 0.126
scaled log2 fold change [2]: -0.345

MAAAGGARLLRAASAVLGGPAGRWLHHAGSRAGSSGLLRNRGPGGSAEASRSLSVSARARSSSEDKITVHFINRDGETLTTKQKVGDSLLDVVVENNLDIDGFGACEGTLACSTCHLIFEDHIYEKLDAITDEENDMLDLAYGLTDRSRLGCQICLTKSMDNMTVRVPETVADARQSIDVGKTS [G83Q]
scaled log2 fold change [1]: 0.455
scaled log2 fold change [2]: 0.716

MAAAGGARLLRAASAVLGGPAGRWLHHAGSRAGSSGLLRNRGPGGSAEASRSLSVSARARSSSEDKITVHFINRDGETLTTKRKVGDSLLDVVVENNLDIDGFGACEGTLACSTCHLIFEDHIYEKLDAITDEENDMLDLAYGLTDRSRLGCQICLTKSMDNMTVRVPETVADARQSIDVGKTS [G83R]
scaled log2 fold change [1]: 0.756
scaled log2 fold change [2]: 0.39

MAAAGGARLLRAASAVLGGPAGRWLHHAGSRAGSSGLLRNRGPGGSAEASRSLSVSARARSSSEDKITVHFINRDGETLTTKSKVGDSLLDVVVENNLDIDGFGACEGTLACSTCHLIFEDHIYEKLDAITDEENDMLDLAYGLTDRSRLGCQICLTKSMDNMTVRVPETVADARQSIDVGKTS [G83S]
scaled log2 fold change [1]: 0.0697
scaled log2 fold change [2]: -1.34

MAAAGGARLLRAASAVLGGPAGRWLHHAGSRAGSSGLLRNRGPGGSAEASRSLSVSARARSSSEDKITVHFINRDGETLTTKTKVGDSLLDVVVENNLDIDGFGACEGTLACSTCHLIFEDHIYEKLDAITDEENDMLDLAYGLTDRSRLGCQICLTKSMDNMTVRVPETVADARQSIDVGKTS [G83T]
scaled log2 fold change [1]: 0.0201
scaled log2 fold change [2]: -0.4

MAAAGGARLLRAASAVLGGPAGRWLHHAGSRAGSSGLLRNRGPGGSAEASRSLSVSARARSSSEDKITVHFINRDGETLTTKVKVGDSLLDVVVENNLDIDGFGACEGTLACSTCHLIFEDHIYEKLDAITDEENDMLDLAYGLTDRSRLGCQICLTKSMDNMTVRVPETVADARQSIDVGKTS [G83V]
scaled log2 fold change [1]: 0.0583
scaled log2 fold change [2]: 0.224

MAAAGGARLLRAASAVLGGPAGRWLHHAGSRAGSSGLLRNRGPGGSAEASRSLSVSARARSSSEDKITVHFINRDGETLTTKWKVGDSLLDVVVENNLDIDGFGACEGTLACSTCHLIFEDHIYEKLDAITDEENDMLDLAYGLTDRSRLGCQICLTKSMDNMTVRVPETVADARQSIDVGKTS [G83W]
scaled log2 fold change [1]: 0.275
scaled log2 fold change [2]: -0.151

MAAAGGARLLRAASAVLGGPAGRWLHHAGSRAGSSGLLRNRGPGGSAEASRSLSVSARARSSSEDKITVHFINRDGETLTTKYKVGDSLLDVVVENNLDIDGFGACEGTLACSTCHLIFEDHIYEKLDAITDEENDMLDLAYGLTDRSRLGCQICLTKSMDNMTVRVPETVADARQSIDVGKTS [G83Y]
scaled log2 fold change [1]: 0.73
scaled log2 fold change [2]: 0.383

MAAAGGARLLRAASAVLGGPAGRWLHHAGSRAGSSGLLRNRGPGGSAEASRSLSVSARARSSSEDKITVHFINRDGETLTTKGAVGDSLLDVVVENNLDIDGFGACEGTLACSTCHLIFEDHIYEKLDAITDEENDMLDLAYGLTDRSRLGCQICLTKSMDNMTVRVPETVADARQSIDVGKTS [K84A]
scaled log2 fold change [1]: -0.0494
scaled log2 fold change [2]: 0.375

MAAAGGARLLRAASAVLGGPAGRWLHHAGSRAGSSGLLRNRGPGGSAEASRSLSVSARARSSSEDKITVHFINRDGETLTTKGCVGDSLLDVVVENNLDIDGFGACEGTLACSTCHLIFEDHIYEKLDAITDEENDMLDLAYGLTDRSRLGCQICLTKSMDNMTVRVPETVADARQSIDVGKTS [K84C]
scaled log2 fold change [1]: 0.225
scaled log2 fold change [2]: 0.851

MAAAGGARLLRAASAVLGGPAGRWLHHAGSRAGSSGLLRNRGPGGSAEASRSLSVSARARSSSEDKITVHFINRDGETLTTKGDVGDSLLDVVVENNLDIDGFGACEGTLACSTCHLIFEDHIYEKLDAITDEENDMLDLAYGLTDRSRLGCQICLTKSMDNMTVRVPETVADARQSIDVGKTS [K84D]
scaled log2 fold change [1]: -0.0908
scaled log2 fold change [2]: 0.0439

MAAAGGARLLRAASAVLGGPAGRWLHHAGSRAGSSGLLRNRGPGGSAEASRSLSVSARARSSSEDKITVHFINRDGETLTTKGEVGDSLLDVVVENNLDIDGFGACEGTLACSTCHLIFEDHIYEKLDAITDEENDMLDLAYGLTDRSRLGCQICLTKSMDNMTVRVPETVADARQSIDVGKTS [K84E]
scaled log2 fold change [1]: 0.218
scaled log2 fold change [2]: -0.39

MAAAGGARLLRAASAVLGGPAGRWLHHAGSRAGSSGLLRNRGPGGSAEASRSLSVSARARSSSEDKITVHFINRDGETLTTKGFVGDSLLDVVVENNLDIDGFGACEGTLACSTCHLIFEDHIYEKLDAITDEENDMLDLAYGLTDRSRLGCQICLTKSMDNMTVRVPETVADARQSIDVGKTS [K84F]
scaled log2 fold change [1]: 0.195
scaled log2 fold change [2]: 0.127

MAAAGGARLLRAASAVLGGPAGRWLHHAGSRAGSSGLLRNRGPGGSAEASRSLSVSARARSSSEDKITVHFINRDGETLTTKGGVGDSLLDVVVENNLDIDGFGACEGTLACSTCHLIFEDHIYEKLDAITDEENDMLDLAYGLTDRSRLGCQICLTKSMDNMTVRVPETVADARQSIDVGKTS [K84G]
scaled log2 fold change [1]: -0.452
scaled log2 fold change [2]: -0.00112

MAAAGGARLLRAASAVLGGPAGRWLHHAGSRAGSSGLLRNRGPGGSAEASRSLSVSARARSSSEDKITVHFINRDGETLTTKGHVGDSLLDVVVENNLDIDGFGACEGTLACSTCHLIFEDHIYEKLDAITDEENDMLDLAYGLTDRSRLGCQICLTKSMDNMTVRVPETVADARQSIDVGKTS [K84H]
scaled log2 fold change [1]: 0.0255
scaled log2 fold change [2]: 0.273
